Binding result and binding signal data for 3 molecules are collected here from PMC2900306, “Integration Preferences of Wildtype AAV-2 for Consensus Rep-Binding Sites at Numerous Loci in the Human Genome”.

The target in data set [1] is T1, MBP-Rep78 (Adeno-associated virus type 2 (AAV-2)?, UniProt Q89268 1-621).
T1 sequence: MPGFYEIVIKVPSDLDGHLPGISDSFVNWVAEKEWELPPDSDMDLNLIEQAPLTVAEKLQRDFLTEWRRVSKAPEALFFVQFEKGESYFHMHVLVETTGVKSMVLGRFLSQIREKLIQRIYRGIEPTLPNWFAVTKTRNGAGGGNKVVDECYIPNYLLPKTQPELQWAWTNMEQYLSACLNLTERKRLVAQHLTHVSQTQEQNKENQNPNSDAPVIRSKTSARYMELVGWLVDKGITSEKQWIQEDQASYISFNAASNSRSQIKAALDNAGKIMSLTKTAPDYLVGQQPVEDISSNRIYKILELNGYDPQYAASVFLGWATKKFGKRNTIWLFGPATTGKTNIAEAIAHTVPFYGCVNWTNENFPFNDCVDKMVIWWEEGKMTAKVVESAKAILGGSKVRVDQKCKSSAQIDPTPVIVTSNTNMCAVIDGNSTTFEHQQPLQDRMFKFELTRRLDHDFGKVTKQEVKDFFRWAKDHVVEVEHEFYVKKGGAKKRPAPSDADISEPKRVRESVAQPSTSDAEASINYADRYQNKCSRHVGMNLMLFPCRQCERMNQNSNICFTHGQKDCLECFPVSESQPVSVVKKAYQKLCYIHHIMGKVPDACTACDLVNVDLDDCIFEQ
As to the kind of experiment: EMSA; among the highest affinities; 10 mM Mg2+; 25 mM HEPES-KOH pH 7.8, 10 mM MgCl2, 40 mM NaCl, 1 mM DTT, 2% glycerol, 12.5 ug/ml BSA, 0.01% Nonidet P40, 5 ug/ml salmon sperm DNA; 0.015 pmol probe; 20 min at 20 C. Particulars: protein: recombinant; MBP fusion; label: 32P 5' end label; blunt. In general terms: Mobility shift assays separate free from complexed probe on a gel.

The target of data set [2] is T1, MBP-Rep78. As to the kind of experiment: EMSA; 10 mM Mg2+; 25 mM HEPES-KOH pH 7.8, 10 mM MgCl2, 40 mM NaCl, 1 mM DTT, 2% glycerol, 12.5 ug/ml BSA, 0.01% Nonidet P40, 5 ug/ml salmon sperm DNA; 0.015 pmol probe; 20 min at 20 C. The conditions noted are these: protein: recombinant; MBP fusion; label: 32P 5' end label; blunt.

B1: AAV p5 (nt 245-292) (dsDNA)
DNA 1: TCACGCTGGGTATTTAAGCCCGAGTGAGCACGCAGGGTCTCCATTTTG
DNA 2: CAAAATGGAGACCCTGCGTGCTCACTCGGGCTTAAATACCCAGCGTGA
Consider B1, for which, in data set [1], the binding result is “binds”.

B2: Chr. 3p24.3 (AAVS3) (dsDNA)
DNA 1: GTGAGGAGTGAGTGAGTGAGCGAGCGCACATTCATTCCCCTTGGGAAGC
DNA 2: GCTTCCCAAGGGGAATGAATGTGCGCTCGCTCACTCACTCACTCCTCAC
Turning to B2, in data set [2], the binding signal was 2 fold of AAVS1 affinity.

B3: AAV-ITR (A-stem, nt 85-133) (dsDNA)
DNA 1: GCCTCAGTGAGCGAGCGAGCGCGCAGAGAGGGAGTGGCCAACTCCATCA
DNA 2: TGATGGAGTTGGCCACTCCCTCTCTGCGCGCTCGCTCGCTCACTGAGGC
Consider B3, for which, in data set [1], the binding result is recorded as “binds”.
